From publication PMC4533228 (Cell Reports, 2015)

Target: T1, polyUb-E6AP (resin-bound E6AP autoubiquitinated with K48-linked polyubiquitin chains) (UniProt Q05086 1-875; P0CG48 1-76, K48-linked polyubiquitin chains of undefined length attached by autoubiquitination; sites not stated | ubiquitins joined to each other by K48 isopeptide linkages and to E6AP; chain length undefined)
T1 construct: HECT E3 ligase E6AP; ubiquitin, the mature 76-residue protein, wild type; Covalent conjugate held on resin; also called K48-polyUb conjugates; polyubiquitinated E6AP; source: E3 enzyme expressed in E. coli and purified
Experiment: pull-down; resin-bound polyUb-E6AP and polyUb-Ube2SΔ incubated with 100 nM purified Rpn10-UIM, hHR23A or hHR23B for 30 min at 4°C, washed; bound proteins by immunoblot for His (Rpn10) or hHR23A/B
Conditions: both partners purified

fold binding relative to K11 chains (polyUb-Ube2SΔ), ImageJ quantification: ~4 fold
B1: recombinant Ub-interacting motif (UIM) of Rpn10 (domain or fragment)
chain: MLGLGASDFEFGVDPSADPELALALRVSMEEQRQRQEEEARRAAAASAAEAGIATTGTEDSDDALLKMTISQQEFGRTGLPDLSSMTEEEQIAYAMQMSLQGAEFGQAESA
